assay: label from the status in PepcDB records
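Further: failed if final PepcDB status was selected cloned or expressed and not failed if soluble or beyond.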

| Sequence | protein production |
| --- | --- |
| MLRNNLGNSSDSKNEDGSVFSQTEHNIVATYLIMAGMISIISNIIVLGIFIKYKELRTPTNAIIINLAVTDIGVSSIGYPMSAASDLYGSWKFGYAGCQVYAGLNIFFGMASIGLLTVVAVDRYLTICLPDVGRRMTTNTYIGLILGAWINGLFWALMPIIGWASYAPDPTGATCTINWRKNDRSFVSYTMTVIAINFIVPLTVMFYCYYHVTLSIKHHTTSDCTESLNRDWSDQIDVTKMSVIMICMFLVAWSPYSIVCLWASFGDPKKIPPPMAIIAPLFAKSSTFYNPCIYVVANKKFRRAMLAMFKCQTHQTMPVTSILPMDVSQNPLASGRI | failed |
| MLRSCARRLRTLGALCQPPPVGRRLPGSEPQPALRSFSSEEVILKDYSVPNPSWNKDLRLLFDQFMKKCEDGSWKRLPSYKRTPTERIQDFKTHFLDPKLMKEEQVSQAQLFTRSFDDGLGFEYVMFYNDVEKRMVCLFQGVPYLEGPPGLIHGGAIATMIDATVGMCAMMAGGIVMTANLNISCKRPIPLCSVVRINSQLDKVEGKKFFVSSNVQSVDEKTLYSEATSLLIKLNPAKSLT | failed |
| MLRSLDIRDMLIIDRLSLAFQPGLNVLTGETGAGKSILLDSLGFVLGWRGRAELVRAGADKGEVTAVFDLPPGHAARAVLDEAGIEAEDELILRRVNFADGRKTAWVNDRRVSGEVLRGLSDRLVELHGQHDDRGLLNPRGHRQMLDTFAGLDLSACRRAWTALGTARRTLLAAEEALAAVRAEEDFLRHAVAELDKLDPQPGEEALLDTRRREMQGAEKIRDDIARAHRALSAEGAETLLVD | failed |
| MLRTEHYAFLPCISRALEERDSLGIRRELRARQQRLSMQQSRSKLGRVCVTGANSPLGQELVGALTRTPDPSLRPDAIGVIGARDPIESHSAGAGLHFPGPGVDFLECAATDLEHYNPRTLFSINDDDLGLRRRSIFRENQVVIDLLRAQGETNEPRSKTRLVLVTLLGCGDSEDAIPSQAFDVLRPLLLELSRVEQYVRESGLPYTIVRPGALEHGDADSRAIVSESKVGFGTIHRSTLAHLLLNVAASEKAVNKTLMALDMNRLLVAAPYVRPFEVWESPPFEVFDL | not failed |
| MLRTFVLMFFTSLSFIVAYYITFSPLILAEFSHALIDFLTIAFSIIAIKFIGENEVAEGRFSYGLHRLEVVVAMINLIIIILLSLAVAYTSVTSLFKETTNDSFTLIVSSALASFLTYFASPKERNDLGKKGLYMHILSDFLGYIMGFIIGILIFISGIRELDPVGAIILVILNFALSIPLLKEAFLIFMEGSSVKIDHIMEELTKISPSVHHLHVWSICDHVKVATLHVKVSPNLTIAEADKIRGSICDFLKEKYGISHVTVQFETNVDD | failed |
| MLRYSLLVLLGACSYGILAIFVKLAYAEGFSLGEVIGSQYLFGWIILLAITLLFSRHRVPLKQALLLFVAGTSASFTGIFYYASLKTVPASIAIILLFQFVWVGIIIEAVATKTLPSREKVISVIFLLVGTFLSSGLLEQSAGAFDTTGIILGLLSAVTFATYIFVSGKVAVEVPSLPRGVLLMTGALTLVMIVFPPTFIFNGAISQGLWKYGLGLGTFSIVIPSIAFTIGIPKIGSGLATILGAAELPVTTIMSVFVLKEAVLSSQWFGVSLILIGIAIPQIAYAMRGRYRKHHTHKKVAA | failed |
| MLSAYFSGSETGLLSLNKYRLRFLSEQGNKGAKKAEKLLEKPDTLLSFILIFNNLVNISASAIATVIGMRLYGDAGVAIATGLLTFVMLVFSEIFPKTVAAMHAEKVSFFSSHILTSLLKIFYPLVWLMNIFTKSLMQIVGLKLDMQKQVISSEELRSIVSEAGEATPNEQHPQMLLSILDMETVTVDDIMVPRNEIGGINIDDDWRAIMRQLNHAAHNRVVLYKGSLDEQVLGILRVREAFRLLLEKNEFTKETLIRAADEVYFIPESTPLKTQLANFRTNKERIGLVVDEYGDIKGLVTLEDILEEIVGDFTTSTAPSIDKEVIQQSDGSMIIDGSANLRDLNKMFNWELDTEDARTFNGLILEHLEEIPDEGTICEIDGLLITILEVGDNMIKQAKVVKL | not failed |
| MLSELAKQFSTQIQTFFYLIMLINGLLHFIFAGAVARDAGNLYRLGQKPVLVSAPTWAFATLIGGVITATIYWLLHHSTLTRPTMREIRYDKA | failed |
| MLSFIAVGLLARLAVARGEVKYGCTKHELRRLSRRGRLLLVVLWPLVAAFLLAIFPNVPSRNIFGDLILIIAAVLPAALLAFLVNAMLERTRFKVVPRRSPKAHSR | failed |
| MLSFIIKRILWAIPTLFGVSIIVFMMVHLVPGDPALVILGEKANQAAIDALREQFGLNKPLIEQYFFFINNVLHGNFGTSIMTGEPVMHEFWQRFPATVELALIALFMALVLGISVGVLAAIKRYSVFDYSSMTFALAGISMPVFWLGLMLIYIFSVQLGWLPVFGRLSDVYYLDGPTGLYLIDSLIARDYGAFMDTIKHLILPSIVLATVSTAVIARMTRASMAEVSKEDYVRTAKAKGCSSFRVIFVHTLRNALIPVTTIAGLMLAGLLGGSMITETVFSWPGIGKWIVNALNQRDFPIIQSMSLIIAMMYIGANLLVDILYAFIDPRIRLS | failed |
| MLSFRARLFLAFALLWLLFLGGGWYLAGRSVDQALKRRLEATLAQDALRAAEAYQKGQAGALLTTGGVYLHLYAQDGTPIALTRPDHRLPPERLRRAGPTPEVLWEEGFAAALVATPLGLLVLTAETSPIEAALEALREALLRAFLLLSPLGLALVYLTARLAARPLEAVAREITRRSPDRLDPVPHRLPQDEFGRMVEAVNALLQALKEAKERERAFLAEASHELRTPLTVLLGHLDRLGRNPQDLEALRTARATAERMRRLVEDLLALARGEVERNLNLHIVDLGEVAREAALEHGVAAEAESAEVLGDPDRLLQLLRNLVANAVRAAGKEGVRVRVRREADHALLEVEDSGPGIPEDLLPRLFQRFARGPGGGTGLGLAIAHAIAKAHGGEIAVESRPGRTVFRVRLPLLEEEA | failed |
| MLSGMSGGMLFIVFAWLIGHAVLRIVPTAYKPVLMVRSRGIALALSAIPLLLAYQLYEVVRVVQSQFSLSFQEAASTVIIQHPVGQSWFVVFTVTVFLGVLLLFPEKRVTANLFFVGVLLLIVSVSWVSHGTALLGWQGFVLNTSHLLASAVWIGTLLMVGWGARPLTDGLKFHRWFSLMVVCAVAVLSVSGLLLMNVIVPEYVPSWALTYGQFLLMKHLLFLPLLLFGLRHLLWLRAEKPLSVVQRSIRIESVVGCVVFFLSAFMTRQTPPHEVAETMQVEPPAWSFLLFHPEGLSVFQQLTLSLTGWGIACLVLAMIGLAASVLSLRHKSLFVFTTSSLTASLFLYVGLMLSVTPVSILVDETRYPTVEAAIQATYEDKTSIDIVLEDETEETTTVIYTVNAHDFVIEKLGIDSETDDFYRLPAAMLTVGGTSVYDEPMKIRTFQVTDGQWKETGSNYTYVTFGMIQEPKETVRLQLHYEDGSYVTELTNGVFYHVYQSDVEMSQPVIDLLAEDGTKVDQFLPAGVEQGVYCH | failed |
| MLSKIVDINAARQNIDMKVKLLSLNKRTIKNDRGETVYYYGIIGDETGTVPFTAWTFPPAVRVGDVIEIRSCYSNIYNGKIRIYIDGRSEVILKPDVEMEVKRSSDLVKIRDVSLSTPYVSVIGKITGIHKKEYESDGTTKSVYQGYIEDDTARIRISSFGKQLQDSDVVRIDNARVAQFNGYLSLSVGDSSRIESVNVNIPEKPRHIFISEIRSPVGGITIVGFVVSVGQGSRIFTKCSVCRRIVEDGTCKDHPKAPVYPDIFGYFSISDGTGTITCYINSDSFLPYAGISQDQFRRDAYSMNPNSLIKKNLLGKCISVSGDLRSQDDRIVMNVQSMKAISAEDNREIESIIEEEFQ | failed |
| MLSMVEVKIIKSDGFFNEVLISSDKKIHFDTAYAEGDFNCFGEGSIVSETTDDLKFKIANLIPGKYHFKIAIDQYKILREAENRSGSYSFSIWLEKPYHNPDYAQFCAIIDKKLMDVRIAVPKHSISVSIFTKDTLKPVYSRRASFDTFDAVEYVFDGMSDYYFEVDNSRLPKEGYFSPKVHIEHEGGSKIIYHIFPDRFFRVGPHLPTLSRWGDKPTFSSFFGGNLRGITEKIGYIKALNVDTIYLNPVYKSKSNHRYDVDDYFSIDGLLGGEQDFIELVNEAHENGIKIVADMVFNHTSTDFPYFLDALKNGKNSKYWNWYIFHGEGAAVFDGRAKGKTKPLYETFMGVGRMPKLNHKNAEVRKFCIDVMKYYKNKFGVDGFRYDVAHSIYPEFFLEAVKEFGNEMLHIGEAWCLPSMFMLSGYWNSFTNYYLRNAIIKFVREEINITEFYNMIQNMIISYGPLIQQNVMNILDSHDTERILRAFKGNKKKVKLAYSILFMFDGFATIYYGDEVGLDGGRDPDDRRCFPWDNMDEDMLQFLKKLGEIRRMYHTGSAGIITVEETQECKYITRLSGESIIKVAIAKKPVTLEGEIILSSCGEKTIYEGDFALSIAKYA | failed |
| MLSSVFQVLGGLALFLLAMEMMTNGLKNAAGHHLRHMLGHWTRTPLRALFAGFVITGIVQHSGAVTVATIGFVNAGLMTLAQSLGVVFGSNIGTTMTGWLVSLIGFGFKIEAMALPLLAAGVGFKLVSRNPRNQFLGEALAGFALFFLGLSILKTALESSALGFQNGHLINADYGLPAFMLIGLLATVLTQSSSAALAIVLTAAAGGLIPLDNAAAAVIGANLGSTSTAALSALKATANARRLATGHILFNLVTGVIALLVLPAMLWLVNTLTNLLDLEANPAVSLALFHTLFNVLGAAIMLPFTQPFARFLGRLFRSKEEDNAEPRYLDDTLVTTPELAIGAVDQEMKRLIGHSRGLLRVCLDRESLEESDVRPKADAVRNLNLAITDYIGRLRAEKMHPSVVDALTLSIRTCRYLAEATELTLHLVRLRALARRTDFETLESVFNRYFEVIRALVASETPVPEQLQEAETVYHQLKAATLQKMIRREFSSSLGAQVLDELSAVRRLTDQWSKALYWQDGVGLLNQSHDQASAS | failed |
| MLSTEHFLLFASIVLFAGIMAGKVGYRFGIPTLLIFLFTGMLFGVDGFGFQFSNADVAQSVGIIALSIILFTGGMDTRIRKVRPVIAQGLTLSTLGVLLTALLSGFFIFWLSGSDFGPYPFALSTSLLLAATMASTDSASVFAILRSQKMQLKENLAPTLEMESGSNDPMAYMLTIALIDFITTGQSGIGSIVLTFILQFVVGGTLGFLMGRLAVFILNRMNIHNDTLYPITLLCMVFFTFSVTSLLQGNGYLAVYIAGIVVGNNRVIHKKSINTFLDGITWLVQIILFILLGLLVNPREMLDVAPFSLVVGAFMILIARPLAVYFCLIPFRKISFRGKTFLSWVGLRGAVPIIFATYPMIDNIPGADQLFNVVFFITILSLLVQGSTISQVARWLGLDIPSPPIGSLFGVEIPEETGTKLEERVVDASMLSHGDLLMNLSLRDEELVILVRRGEGYRVPKGRMHLQVGDVLLIVSEKNLSQTLTSGDPENHPGLLQRLKHRLLRR | failed |
| MLSTSRSRFIRNTNESGEEVTTFFDYDYGAPCHKFDVKQIGAQLLPPLYSLVFIFGFVGNMLVVLILINCKKLKCLTDIYLLNLAISDLLFLITLPLWAHSAANEWVFGNAMCKLFTGLYHIGYFGGIFFIILLTIDRYLAIVHAVFALKARTVTFGVVTSVITWLVAVFASVPGIIFTKCQKEDSVYVCGPYFPRGWNNFHTIMRNILGLVLPLLIMVICYSGILKTLLRCRNEKKRHRAVRVIFTIMIVYFLFWTPYNIVILLNTFQEFFGLSNCESTSQLDQATQVTETLGMTHCCINPIIYAFVGEKFRRYLSVFFRKHITKRFCKQCPVFYRETVDGVTSTNTPSTGEQEVSAGL | failed |
| MLSVRIPGPARQAWAIVEQRPWLARRPFIIHGPPWRLASQQEDDVFKLMSRSAVKMVERYLPDPYVFVVLLTLVAAGAAMIIEGQTPMAVVRWWGNGFWGLLTFAMQMLLVLVTGYMLASTPLVKRMLARLASLATSAGGAIILVSVVSLAASWINWGFGLVVGALFAKQIARQVRVDYRLLVASAYSGFIIWHGGLAGSIPLTIATEGHFSADKIGIIPTGDTIFAVFNLVIVVAMFILVPLVNRLMLPDEKESVYVDPARLEEASVPASDDDKRPAARLENSRLLAWLIAAGGLAYMFDYYVVRGAGLNLNVINFSFLILAILLHGTPRRLLTSLDEAIKGGAGIVIQFPFYAGIMAIMMDSGLAATLSEWFVSIASAATLPFWTFISAGIVNIFIPSGGGQWAVQSPIVISAAQALGADMPRVAMAVAWGDAWTNMLQPFWALPVLAIAGLKAKDIMGYCIIQLLVTGVIISVGLSFF | failed |
